# From patent publication US20200317768A1 (published 2020)
# Substitutions are numbered along the chain they refer to. Names and notes keep the numbering of the source.
# T1: cynomolgus monkey FcγRIIa1 extracellular domain, C-terminal His-tag (cynomolgus monkey)
# T1 construct: also called cyno FcγRIIa1; FcgRIIa1; not shown: His-tag added to the C-terminus
# T1 chain: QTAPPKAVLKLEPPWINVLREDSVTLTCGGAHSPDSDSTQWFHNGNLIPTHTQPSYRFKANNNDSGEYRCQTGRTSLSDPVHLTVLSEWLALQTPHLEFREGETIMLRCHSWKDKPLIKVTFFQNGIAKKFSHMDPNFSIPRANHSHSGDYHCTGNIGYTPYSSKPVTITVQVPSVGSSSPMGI
# T2: cynomolgus monkey FcγRIIa2 extracellular domain, C-terminal His-tag (cynomolgus monkey)
# T2 construct: also called cyno FcγRIIa2; FcgRIIa2; not shown: His-tag added to the C-terminus
# T2 chain: T1 chain with P95T, T121A, I127K, A128S, K130N, D135N, R142Q
# T3: cynomolgus monkey FcγRIIa3 extracellular domain, C-terminal His-tag (cynomolgus monkey)
# T3 construct: also called cyno FcγRIIa3; FcgRIIa3; not shown: His-tag added to the C-terminus
# T3 chain: T1 chain with P95T, T121A, A128S, H133P, D135N
# T4: human FcγRIIaH extracellular domain, C-terminal His-tag (human, UniProt P12318 34-217)
# T4 construct: also called human FcγRIIa (type H); FcgRIIaH; not shown: His-tag added to the C-terminus
# T4 sequence: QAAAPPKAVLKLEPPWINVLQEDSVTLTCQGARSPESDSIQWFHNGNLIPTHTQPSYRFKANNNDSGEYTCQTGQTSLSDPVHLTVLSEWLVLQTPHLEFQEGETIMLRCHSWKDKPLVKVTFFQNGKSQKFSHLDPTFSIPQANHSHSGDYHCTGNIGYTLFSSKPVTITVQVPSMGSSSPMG
# T5: human FcγRIIaR extracellular domain, C-terminal His-tag (human, UniProt P12318 34-217)
# T5 construct: also called human FcγRIIa (type R); FcgRIIaR; not shown: His-tag added to the C-terminus
# T5 chain: T4 sequence with H134R
# T6: human FcγRIIb extracellular domain, C-terminal His-tag (human, UniProt P31994 43-217)
# T6 construct: also called FcgRIIb; not shown: His-tag added to the C-terminus
# T6 sequence: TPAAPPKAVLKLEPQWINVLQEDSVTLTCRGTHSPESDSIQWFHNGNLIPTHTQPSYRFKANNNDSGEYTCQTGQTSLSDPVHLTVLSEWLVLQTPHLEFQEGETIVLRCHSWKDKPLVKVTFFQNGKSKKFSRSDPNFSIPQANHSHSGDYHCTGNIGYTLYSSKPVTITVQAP
# B1: MS1032LO06-PK55 (M103205H795-PK55/M103202L889-SK1) (antibody, human IgG1, kappa)
# heavy: QVTLKESGPVLVKPTETLTLTCTVSGIDLSHDDISWVRQAPGKGLEWVGIISYAGSTYYASWAKGRLTISKDTSKNQVVLTMTNMDPVDTATYYCARGVPAYSHGGDLWGQGTLVTVSSASTKGPSVFPLAPSSKSTSGGTAALGCLVKDYFPEPVTVSWNSGALTSGVHTFPAVLQSSGLYSLSSVVTVPSSSLGTQTYICNVNHKPSNTKVDKKVEPKSCDKTHTCPPCPAPELLNGPSVFLFPPKPKDTLMISRTPEVTCVVVDVSDEDPEVKFNWYVDGVEVHNAKTKPREEQYNSTYRVVSVLTVLHRDWLNGKEYKCKVSNKALPKPIEKTISKAKGQRREPQVYTLPPSREEMTKNQVSLTCLVKGFYPSDIAVEWESNGQPENNYKTTPPVLDSDGSFFLYSKLTVDKSRWQQGNVFSCSVMHEALHNHYTQKSLSLSP
# light: DIVMTQSPATLSLSPGERATLSCTSSQSVYHANWLSWFQQKPGQPPKLLIYWASTLAYGVPSRFSGSGSGTDFTLTISSLQPEDAATYYCAGGYGGGRYAFGQGTKVEIKRTVAAPSVFIFPPSDEQLKSGTASVVCLLNNFYPREAKVQWKVDNALQSGNSQESVTEQDSKDSTYSLSSTLTLSKADYEKHKVYACEVTHQGLSSPVTKSFNRGEC
# notes: CH PK55 = SG1 with G236N/H268D/Q311R/A330K/P343R (EU numbering); also called MS103205H795-PK55
# B2: MS1032LO06-PK57 (M103205H795-PK57/M103202L889-SK1) (antibody, human IgG1, kappa)
# heavy: B1 heavy with R345P, N386R, D415R
# light: B1 light
# notes: CH PK57 = SG1 with G236N/H268D/Q311R/A330K/N384R/D413R (EU numbering); also called MS103205H795-PK57
# B3: MS1032LO06-PK56 (M103205H795-PK56/M103202L889-SK1) (antibody, human IgG1, kappa)
# heavy: B1 heavy with D415R
# light: B1 light
# notes: CH PK56 = SG1 with G236N/H268D/Q311R/A330K/P343R/D413R (EU numbering); also called MS103205H795-PK56
# Biological target: T1, cynomolgus monkey FcγRIIa1 …
# Assay: SPR; KD of SG1 divided by KD of variant;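 also: relative to parent M103205H795-SG1 carrying the SG1 human heavy chain constant region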
# Protocol: (§1) The kinetic analysis of interactions between these antibodies and FcγR was carried out using BIACORE® T200 or BIACORE® 4000 (GE Healthcare). HBS-EP+ (GE Healthcare) was used as the running buffer, and the measurement temperature was set to 25° C. A chip produced by immobilizing Protein A. Protein A/G or mouse anti-human IgG kappa light chain (BD Biosciences) onto a Series S Sensor Chip CM4 or CM5 (GE Healthcare) by the amine-coupling method was used. […] After the measurement, the antibody captured on the chip was washed off by allowing reaction with 10 mM glycine-HCl, pH1.5 and 25 mM NaOH so that the chip was regenerated and used repeatedly. The sensorgrams obtained as measurement results were analyzed by the 1:1 Langmuir binding model using the BIACORE® Evaluation Software to calculate the binding rate constant ka (L/mol/s) and dissociation rate constant kd (l/s), and the dissociation constant KD (mol/L) was calculated from these values. […] Regarding such interactions, KD values were calculated using the following 1:1 binding model described in BIACORE® T100 Software Handbook BR1006-48 Edition AE.
row,KD fold (SG1 = 1),Binder
1,3.3 fold,B1
2,2.5 fold,B2
3,2.6 fold,B3

# Biological target: T2, cynomolgus monkey FcγRIIa2 …
# Assay: SPR; KD of SG1 divided by KD of variant;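 also: relative to parent M103205H795-SG1 carrying the SG1 human heavy chain constant region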
# Protocol: as §1
row,KD fold (SG1 = 1),Binder
1,4.1 fold,B1
2,2.8 fold,B2
3,3.1 fold,B3

# Biological target: T3, cynomolgus monkey FcγRIIa3 …
# Assay: SPR; KD of SG1 divided by KD of variant;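 also: relative to parent M103205H795-SG1 carrying the SG1 human heavy chain constant region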
# Protocol: as §1
row,KD fold (SG1 = 1),Binder
1,4.3 fold,B1
2,2.7 fold,B2
3,3.5 fold,B3

# Biological target: T7, cynomolgus monkey FcγRIIIaS extracellular domain, C-terminal His-tag (cynomolgus monkey, UniProt A3RFZ7 21-206 (rhesus entry))
# T7 construct: also called cyno FcγRIIIaS; FcgRIIIaS; not shown: His-tag added to the C-terminus
# T7 sequence (A3RFZ7 21-206): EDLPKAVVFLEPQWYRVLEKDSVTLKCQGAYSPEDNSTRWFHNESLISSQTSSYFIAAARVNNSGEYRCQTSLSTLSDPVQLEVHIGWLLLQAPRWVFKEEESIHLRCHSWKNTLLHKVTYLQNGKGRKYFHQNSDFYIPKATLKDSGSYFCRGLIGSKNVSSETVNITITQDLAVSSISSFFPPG
# Assay: SPR; KD of SG1 divided by KD of variant;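 also: relative to parent M103205H795-SG1 carrying the SG1 human heavy chain constant region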
# Protocol: as §1
row,KD fold (SG1 = 1),Binder
1,0.08 fold,B1
2,0.06 fold,B2
3,0.06 fold,B3

# Biological target: T4, human FcγRIIaH extracellular domain, …
# Assay: SPR; KD of SG1 divided by KD of variant
# Protocol: as §1
row,KD fold (SG1 = 1),Binder
1,1.1 fold,B1
2,0.7 fold,B2
3,0.8 fold,B3

# Biological target: T5, human FcγRIIaR extracellular domain, …
# Assay: SPR; KD of SG1 divided by KD of variant
# Protocol: as §1
row,KD fold (SG1 = 1),Binder
1,0.7 fold,B1
2,0.5 fold,B2
3,0.5 fold,B3

# Biological target: T6, human FcγRIIb extracellular domain, …
# Assay: SPR; KD of SG1 divided by KD of variant
# Protocol: as §1
row,KD fold (SG1 = 1),Binder
1,6.3 fold,B1
2,4.1 fold,B2
3,4.7 fold,B3

# Biological target: T8, human FcγRIIIaV extracellular domain, C-terminal His-tag (human, UniProt P08637 17-208)
# T8 construct: also called FcgRIIIaV; not shown: His-tag added to the C-terminus
# T8 sequence (P08637 17-208 F176V): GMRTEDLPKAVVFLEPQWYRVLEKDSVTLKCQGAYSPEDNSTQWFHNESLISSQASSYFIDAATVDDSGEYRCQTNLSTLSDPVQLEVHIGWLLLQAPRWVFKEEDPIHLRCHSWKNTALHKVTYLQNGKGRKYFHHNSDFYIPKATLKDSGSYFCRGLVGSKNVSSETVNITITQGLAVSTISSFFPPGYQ
# Assay: SPR; KD of SG1 divided by KD of variant
# Protocol: as §1
row,KD fold (SG1 = 1),Binder
1,0.05 fold,B1
2,0.03 fold,B2
3,0.06 fold,B3
